In US20220268777A1:

How the values were obtained:
[1] = molecular target: protein PADI4 (peptidylarginine deiminase 4) antigen (human) (UniProt Q9UM07); experiment: sandwich ELISA, capture 197, dilution row A
[2] = molecular target: protein PADI2 (UniProt Q9Y2J8); experiment: sandwich ELISA, capture 197, dilution row A
[3] = molecular target: protein PADI4 (peptidylarginine deiminase 4) antigen (human) (UniProt Q9UM07); experiment: sandwich ELISA, capture 197, dilution row F
[4] = molecular target: protein PADI2 (UniProt Q9Y2J8); experiment: sandwich ELISA, capture 197, dilution row F
[5] = molecular target: protein PADI4 (peptidylarginine deiminase 4) antigen (human) (UniProt Q9UM07); experiment: sandwich ELISA, capture 197, dilution row C
[6] = molecular target: protein PADI2 (UniProt Q9Y2J8); experiment: sandwich ELISA, capture 197, dilution row C
[7] = molecular target: protein PADI4 (peptidylarginine deiminase 4) antigen (human) (UniProt Q9UM07); experiment: sandwich ELISA, capture 197, dilution row G
[8] = molecular target: protein PADI2 (UniProt Q9Y2J8); experiment: sandwich ELISA, capture 197, dilution row G
[9] = molecular target: protein PADI4 (peptidylarginine deiminase 4) antigen (human) (UniProt Q9UM07); experiment: sandwich ELISA, capture 197, dilution row E
[10] = molecular target: protein PADI2 (UniProt Q9Y2J8); experiment: sandwich ELISA, capture 197, dilution row E
[11] = molecular target: protein PADI4 (peptidylarginine deiminase 4) antigen (human) (UniProt Q9UM07); experiment: sandwich ELISA, capture 197, dilution row D
[12] = molecular target: protein PADI2 (UniProt Q9Y2J8); experiment: sandwich ELISA, capture 197, dilution row D
[13] = molecular target: protein PADI4 (peptidylarginine deiminase 4) antigen (human) (UniProt Q9UM07); experiment: sandwich ELISA, capture 197, dilution row H (maybe blank)
[14] = molecular target: protein PADI2 (UniProt Q9Y2J8); experiment: as above
[15] = molecular target: protein PADI4 (peptidylarginine deiminase 4) antigen (human) (UniProt Q9UM07); experiment: sandwich ELISA, capture 197, dilution row B
[16] = molecular target: protein PADI2 (UniProt Q9Y2J8); experiment: sandwich ELISA, capture 197, dilution row B

UniProt Q9Y2J8, sequence (Q9Y2J8 whole entry): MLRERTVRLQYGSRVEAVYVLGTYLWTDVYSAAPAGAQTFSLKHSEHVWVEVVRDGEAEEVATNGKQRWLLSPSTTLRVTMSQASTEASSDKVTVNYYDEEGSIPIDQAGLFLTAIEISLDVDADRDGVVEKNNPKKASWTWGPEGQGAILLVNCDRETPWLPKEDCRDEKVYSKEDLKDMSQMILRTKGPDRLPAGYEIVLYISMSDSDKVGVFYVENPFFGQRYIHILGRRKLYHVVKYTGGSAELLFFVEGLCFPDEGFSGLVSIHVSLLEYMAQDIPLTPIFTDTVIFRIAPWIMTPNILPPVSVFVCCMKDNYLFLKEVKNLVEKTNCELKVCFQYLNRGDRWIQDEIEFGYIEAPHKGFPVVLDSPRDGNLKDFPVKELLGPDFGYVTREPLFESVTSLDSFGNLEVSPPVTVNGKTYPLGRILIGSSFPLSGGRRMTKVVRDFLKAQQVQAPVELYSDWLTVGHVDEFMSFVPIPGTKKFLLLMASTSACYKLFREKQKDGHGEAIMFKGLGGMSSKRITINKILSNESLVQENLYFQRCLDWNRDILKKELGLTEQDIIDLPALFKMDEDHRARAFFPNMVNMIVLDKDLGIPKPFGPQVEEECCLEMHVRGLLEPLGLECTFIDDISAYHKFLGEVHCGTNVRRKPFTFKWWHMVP

OD [1]: 4.13 OD
OD [2]: 0.06 OD
OD [3]: 0.92 OD
OD [4]: 0.05 OD
OD [5]: 3.53 OD
OD [6]: 0.05 OD
OD [7]: 0.46 OD
OD [8]: 0.05 OD
OD [9]: 1.69 OD
OD [10]: 0.05 OD
OD [11]: 2.47 OD
OD [12]: 0.05 OD
OD [13]: 0.04 OD
OD [14]: 0.06 OD
OD [15]: 3.95 OD
OD [16]: 0.05 OD
B1: monoclonal antibody 135-B9 (antibody, human IgG1, kappa, V domains shown)
VH: EVKLQESGPGILQPSQTLSLTCSFSGFSLSTSGMCVGWIRQPSGKGLEWLAHIWWDDDKRYNPALKSRLTISKDTSSNQVFLKIASVDTADTATYYCARYYRFDEGFDYWGQGTTLTVSS
VL: DIVITQDELSNPVTLGTSASISCRSSKSLLHSDGITYLYWYLQKPGQSPQLLIYQMSNLASGVPDRFSSSGSGTDFTLRISRVEAEDVGVYYCAQNLELPLTFGAGTKLELKR
